From article PMC3568127

Molecular target: NRP1 (neuropilin 1) expressed from an adenovirus on DU145 cells (UniProt O14786)
Test: cell based binding displacement assay (biotinylated ligand, streptavidin-HRP, A450); DU145 cells infected with Ad.NRP1 in 96-well plates; various concentrations of competitor then 1 nM bt-VEGF-A165; binding medium with or without 0.1% BSA; 2 h at room temperature; apparent affinity judged by IC50

Chain of NRP1 (neuropilin 1) expressed from an adenovirus on DU145 cells (O14786 22-923): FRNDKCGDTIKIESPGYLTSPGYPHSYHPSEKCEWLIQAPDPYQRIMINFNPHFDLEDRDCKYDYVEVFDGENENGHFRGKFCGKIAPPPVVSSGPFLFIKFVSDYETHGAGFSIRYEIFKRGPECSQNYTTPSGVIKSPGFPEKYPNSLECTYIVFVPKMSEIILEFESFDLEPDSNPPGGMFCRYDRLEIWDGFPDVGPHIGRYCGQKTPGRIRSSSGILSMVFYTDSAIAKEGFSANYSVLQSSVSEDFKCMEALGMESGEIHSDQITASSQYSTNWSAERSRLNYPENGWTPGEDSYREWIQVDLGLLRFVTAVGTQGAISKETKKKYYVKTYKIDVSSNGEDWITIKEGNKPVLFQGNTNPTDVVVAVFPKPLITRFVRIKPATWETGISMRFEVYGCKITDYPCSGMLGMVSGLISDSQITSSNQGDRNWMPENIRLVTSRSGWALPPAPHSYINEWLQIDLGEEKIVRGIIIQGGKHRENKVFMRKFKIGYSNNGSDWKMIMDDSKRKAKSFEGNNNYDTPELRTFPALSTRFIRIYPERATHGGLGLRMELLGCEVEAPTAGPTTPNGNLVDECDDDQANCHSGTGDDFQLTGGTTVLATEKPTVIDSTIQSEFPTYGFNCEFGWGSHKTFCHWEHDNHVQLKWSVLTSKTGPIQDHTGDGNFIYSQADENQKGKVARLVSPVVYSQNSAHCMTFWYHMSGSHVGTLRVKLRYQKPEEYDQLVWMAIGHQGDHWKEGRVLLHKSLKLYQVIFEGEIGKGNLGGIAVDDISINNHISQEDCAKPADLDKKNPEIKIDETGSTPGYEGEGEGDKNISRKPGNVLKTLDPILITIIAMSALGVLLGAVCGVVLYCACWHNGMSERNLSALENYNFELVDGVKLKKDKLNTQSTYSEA

VEGF-A165-HBD (the forms of the cell based assay: with and without the His6-tag)
IC50: 100 to 200 nM
